According to article PMC6603146:
pIC50: −log10 of the molar value.

How the values were obtained:
[1] = target: human chemokine CCL5 (RANTES), commercial recombinant (human) (UniProt P13501); test: ELISA; 50 pg chemokine mixed in solution with 2-400 ng recombinant M3 in 110 ul, 21 C, 1.5 h with gentle shaking, then applied to DuoSet sandwich ELISA plates; drop of OD492 against chemokine without M3 = % inhibition; IC25/IC50 = M3 concentration that removes 25 or 50% of the chemokine; three independent experiments
[2] = target: human chemokine CXCL8 (IL-8), commercial recombinant (human); test: as above

UniProt P13501, sequence (P13501 24-91): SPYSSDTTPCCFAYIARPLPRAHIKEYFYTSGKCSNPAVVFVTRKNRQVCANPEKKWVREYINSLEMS

| Substance | IC25 [1] [nM] | pIC50 [1] | IC25 [2] [nM] |
| --- | --- | --- | --- |
| wild-type M3 protein of murine gammaherpesvirus 68 (MHV-68), recombinant, C-terminal His-tag (natural protein) | 7.1 | 7.79 | 8.7 |
| M3-T272G mutant of MHV-68 M3 protein, recombinant, C-terminal His-tag (natural protein) | 30.2 | < 7.05 | 42.5 |
| M3-E70A mutant of MHV-68 M3 protein, recombinant, C-terminal His-tag (natural protein) | 3.5 | 8.06 | 11.5 |
